Measurements reported in patent US10071358B2, “Antibiotic preparation method and platform system based on same” (priority 2011, dated 2018).

Assays:
Type in all cases: cell-based
[1] = system: vancomycin-resistant enterococci (ATCC 700802); test: inhibition / killing of vancomycin-resistant enterococci; conditions: FIG. 7 A
[2] = system: methicillin-resistant Staphylococcus aureus (ATCC BAA-42)
[3] = system: multi-drug resistant Pseudomonas aeruginosa (clinical isolated strain 13578 in West China Hospital); test: inhibition / killing of multi-drug resistant Pseudomonas aeruginosa; conditions: FIG. 7 C

B1: wild-type colicin Ia: wild-type colicin Ia, bacteriocin secreted by Escherichia coli that forms ion channels (protein, UniProt P06716 1-626, looked up)
Colicin-Ia: MSDPVRITNPGAESLGYDSDGHEIMAVDIYVNPPRVDVFHGTPPAWSSFGNKTIWGGNEWVDDSPTRSDIEKRDKEITAYKNTLSAQQKENENKRTEAGKRLSAAIAAREKDENTLKTLRAGNADAADITRQEFRLLQAELREYGFRTEIAGYDALRLHTESRMLFADADSLRISPREARSLIEQAEKRQKDAQNADKKAADMLAEYERRKGILDTRLSELEKNGGAALAVLDAQQARLLGQQTRNDRAISEARNKLSSVTESLNTARNALTRAEQQLTQQKNTPDGKTIVSPEKFPGRSSTNHSIVVSGDPRFAGTIKITTSAVIDNRANLNYLLSHSGLDYKRNILNDRNPVVTEDVEGDKKIYNAEVAEWDKLRQRLLDARNKITSAESAVNSARNNLSARTNEQKHANDALNALLKEKENIRNQLSGINQKIAEEKRKQDELKATKDAINFTTEFLKSVSEKYGAKAEQLAREMAGQAKGKKIRNVEEALKTYEKYRADINKKINAKDRAAIAAALESVKLSDISSNLNRFSRGLGYAGKFTSLADWITEFGKAVRTENWRPLFVKTETIIAGNAATALVALVFSILTGSALGIIGYGLLMAVTGALIDESLVEKANKFWGI
With B1 the “minimum inhibitory concentration (MIC)” value [1] was 0.91 nmol, the “minimum inhibitory concentration (MIC)” value [2] was 0.23 nmol and the “minimum inhibitory concentration (MIC)” value [3] was 0.91 nmol.
